Experiment: label from the status in PepcDB records

Row | Sequence | protein production
1 | MKRKWIDALWVMGVLLMAGFCLSACNRELDVQTVFPFEVSTMPVPKQIKQGETVEVRCSLVSEGDFSGTCYTMRFFQTEGKGVLRIGRGVALKPNDCYPVGKGDFRLYYTSQSKERQSLEIVFEDNHGQSQTIVLDFNHKESDEDKEREAGYRT | failed
2 | MKRLADVKISTLDLVPVRHDKGPAESLRNSLSLAQHVEKLGYNRFWVAEHHNMDGIASSATSVLLAYLAGGTSTIRVGAGGIMLPNHAPLVVAEQFGTLASLYPDRIDLGLGRAPGSDQMTARALRRERSGSAEDFPDDVTELMEYLGPRTPDQKVIAVPGSGTNVPIWLLGSSLFSAQLAGMRGLPYAFASHFAPRYMHEAIRVYRNHFQPSAVLDKPYVMLGVPLSAADTDEQAEYLATSVYQRILALMRGHSLMQRPPVDSMDGLWLPHEREAVASFLGLAMVGGPEKIRAKLDVLLEQTDADELIFTCDMYEHEDRLRSYEILAQ | failed
3 | MKRLDLVAGPNGAGKSTFVALTLAPLLPGIVFVNADEIAKQRWPDDPTSHAYQAAQVAADTRARLIDLGRPFIAETVFSHPSKLELIRTARTAGYTVVLHVLVIPEGLAVERVRHRVAAGGHDVPETKIRERHRRLAELVAQAITLADGATVYDNSRLAGPRIVAQFSGGGIIGRACWPSWTPPPLMSRWSNRPETA | failed
4 | MKRLFLPLLGFLSLVLMCCNDNKESGTDSYDPNKPVTIDYFTPDTGRVAEKVIIIGNNFGNDKSAVTVLFTDNMEKENKAAVVGVDNTTIYCMAPRQAEGFNKITVKVNDQTVVADETFKYSVSENVSTIAGDFVQADGAGKDGSLAEATFGQMFGVACIDEQSGIVGQAWNNNSVRYISIDEDAVITIQSGPVVGKVAVSNDKTLAYGATINGANTVYVYKKSQAWVPSRLSDISSGTDVWAVALNGDNQWLYYVTANGRLGRIEVDNPTHNEILFEHNDFSGGPFAYIAYSAFEDCFYVTTDKNKILKVWVKEDGTHAYEQINQNNTGTTDGFLADEAKFQYLRGLTIDEDGNIFVCQGDNSHVIRKIAYDENMEKRYVTTVLGTSTVHGTDDGSPDIALFNGPQDISYDGNGGYWIAMRYEPALRKYSIE | failed
5 | MKRLIVSSSVVLFMFLCSITITSAENNSVKVAFIRHHNLWIKVDGKEIQITKGEYITGPKWSYDGEWLAYVKGKKQSILELYRLKDGKKVTPFHSEASNYQWSPTENIIAFIFTGTLNTFDVEKKNADFENVSAGVGDYAWYPDGKNFLVSSEAHLLPTGWTGAQLYEVQKDAHMNPHKMKHLYALPNEHDDFLALVASGFKWSPDQKWISFLAVPTASWSADSNTLCLVRADGSRFEKVDQMLLNAQWFQWAPSKNILAYIEGSGRVALENKHLKVKELPALQQNIFTPKGYVDWDFVWKNDRVIIVSRAKEAGIETPPEKRPLPSLYEVDSTSNAQHQITKKTNKQGDYHPIFMKKSNQLIWIRSDRKKADVWLAHKDRKQEKKWIENIDVPAWYYEKWNWGNVISVKEE | failed
6 | MKRMHNPAHPGEVLREYLGELTVTNAAAKLGVSRVALSRILNGTNGISADMALRLEDALGTSAEMWAAMQFKYDLWVASQQPRPKITRLHV | failed
7 | MKRPHGYQITSLRADKYGGYYAANFVGNEILYFDVNNNVNALVKDGFSYLKSPYDVIEANNLLYVTLYSSDEIGVYDKVLGVKRKSIGNKGTKDGELLAPQYMAIDKRNYIYVSEWGNKRVSKFGLEGDFILHFGSRTSGYKGLLGPTGVTYLNENIYVADSLRNTIEVFDTSGNHLYSVFTSIEGIEGLSSDFVGNNVIVSSKDGVYKYSIAKKTITKILKADKMNSKISSSILDANNQMIVSDFNNAKVSVYKSDASLYDSLEHHHHHH | not failed
8 | MKRQYYIGISLFITIIILVLDQITKFIIASSMKVGDSFEVIPNFLNITSHRNDGAAWGILSGKMSFFFIITIIILVVLIVFYIKEAKNNLLMQIAISLLFAGALGNFIDRVLHGEVVDFVDTYIFGYNFPIFNVADSSLTIGVLLIIIALLTDMKKEE | failed
9 | MKRRLLCALLASTLAQPLTVRADLPDLGEISDASLSLSDEARIGRDALRAMREAGDVVDDPEVNAYLNDVGGRLAAAAAVPGVRFTYFCVADAGINAFAMPGGYVGINIGLMLASQSEGELAAVLGHETAHVAQRHIARMQAANSAASPLLLLGTIVAAALAAKAGSGDGAMGAVSAGMGLSISRQLAFSRDFEREADRVGMQYMSAAGFDVRNMAAFFQRLEQASRYSDNTAYAFLRTHPVTLERISEAQNRALDYPVRMRADSVDYLLVREKLRVLTLSPEEAVSHYSSALQRGLYLNEGANWYGLARAKLLQHDRAGASEALAKARAKLPDNPMLYGLEVEIARDGRDWAAAARAARNGLSAFPRSVSLQLAQLDVALDGGDRKAAQAQLRQLLDSRRDDPALYRREAKLYADKDPLRYHAALGNAFYYEQRYGAALEQYQLAGKAKGDDFYLRSMLEARLREVEKLAKEERKAARNLEHHHHHH | not failed
10 | MKRSIAPLLVCPACLPKERPLELTATAEADGDITAGHLSCKGCRRRFPIRDGIAVLLPDPDTGPSGGQWKYEEQGTLATYLWSHFADLAGDPEAGDAYASWASALAGNAETSLDAGCAVGRLTFELGQRSGLAVGFDLSLTFIRAARQLARERQIRFSLPREGNLRDEFRLTLPDCWRTDEVEFVVADALAIPFARETFDRTASLNLIDRVSYPLAHLYEMNRVARLSGASFLLSDPFSWSTANAPEEKWLGGTESGPYSGRGMDNVKAILGGKEAIIAPPWTVAREGSVWWKIRSHRNHFELIRSEFLVAERLEHHHHHH | failed
11 | MKRSLLACAMSCMMLTVSAHSDFDVRNVDSQFHVPEIGGGVGLIDQQKERQIGEKVFREIQKQMPVVHDPWLQEQYSQIFLRVLAQTSITQPVGLVIIKDPQINAFAVPGGLFALNTGLIANARNIDEVAGVMAHEVAHVTQRHYSRSQEAFKGQGLLALAGILVGAAVATTSNADVGSAVMLGTQAALMDRQLTYSRNQEREADRIGMQYMYAAGYNPQSMADFFETMQRSRVGSSFMPDFWMTHPLTTERMSEARLRANQLPKVETKLYDPNFQLLKWYTLAVSDPSSEKILENVVKQGNKEAQLALGAYYVGQGDFVKAQKQLDDIKSQFNENTLYCLIQTNIYLGQNELDQAYSSIVNIQRAMPESRALAYKLAEVMILQGKAGDTLQLIQPFVNRNPRDLEGWQLMQQASSIDRISPVQTVNTLRYRAEVQFWSGNEENAIKSLLHAQRLAKGNESLSARIDSRLKQMQSDYTMKI | failed
12 | MKRVFVFQDFKSQKFWSIDVRGTDVIVNYGKLGTDGQTQVKNFSSAGEAEKAAGKLIAEKTKKGYVETLEEVAKEMKVEAKKYALSYDEAEEGVNLMDKILKDKKLPSLKQITIGCWGYEGEDCSDIADGIVENKEKFAHFEGLFWGDIDFEEQEISWIEQVDLSPVLDAMPLLNNLKIKGTNNLSIGKKPRPNLKSLEIISGGLPDSVVEDILGSDLPNLEKLVLYVGVEDYGFDGDMNVFRPLFSKDRFPNLKWLGIVDAEEQNVVVEMFLESDILPQLETMDISAGVLTDEGARLLLDHVDKIKHLKFINMKYNYLSDEMKKELQKSLPMKIDVSDSQEYDDDYSYPMITELEHHHHHH | not failed
13 | MKRVNQNLYQLLRRIYWRLPLPEETKELLVGFARRFLRGMKKALAEPVTTASSASVSREKILQEYANQILAIPRKSGNEYVEISSSSYQRKEGDAKILAYYLPQFHPTKENDMWWGKGVTEWNNVSRAMPQYVGHYQPRLPGELGYYDLRILDNMRRQVELAQMYGIYGFCFYYYWFDGKRLLDKPLDMFLEAKTIDFPFSLCWANESWTRRFDGSCGEILVKQSETVESYIAFINSVVPYMRDSRYIRMNGKPIFTIYRPSFIPECASTITAWREHCVKAGIGDIYIIGIKEHTWDVNLIELGFDAQSEFHPGTLFKHCVDISSQINYMQDFGGIVLDYRDIVEHKKYFLYNHPKLHRAAMPMWDNSARRDNKGMIFEGASPDLYERWLTDILLEAKNREDLEDHYIFINAWNEWGEGAYLEPDKKYGYAYLNATRQAIEGVRS | failed
14 | MKRYIYLFVSVFTLVMASCQQEETSNGKTGFLQFSVEKNTSTILVPATRAEELPIALQVVDRAGTVVKETDDWHNWTSTPLELPLGSYTINAFSKGVDVGTAGFDEPYYWGQSEVTVVPKVNQSVNIECRLANVKVTVNYSADVKKYFSKLNCSVGNSSGKLVFGKDETRSGYFAVDKLNISLALTNTDGRSFVFESEPITDVKERQHYRINYTMKANGAIGGVSVTLDPSTKEYNVNIAIPKESNPSVNVWSDFADVTLPLPDGVVTKECKYRISGTEDWNTVSNVEQADGKLVATITGLIPGTEYDFCFAINGVNGKITTATTELQKQLENGSFDEWNQNGKTWFPGTAAEASAKNSYWDTGNVGAATMSKNPSIGESNDVHTVGGKSAKLSSQFVGMFGIGKFAAGNIYIGRYMETYTSPMGARIRFGREFTSRPTQLKGWYKYTRGTSIDRGDHNVEELKNSGGDKCAIYIALTDNEGLVDDNGVKTAYEVNNNKEGSPTRYTVDLSEANKDVIAYGSITDEESKGSFDESGNVVWKQFTIDLKYRDLTRKPKYIIVVASASKYGDFFTGSESSVMLIDDFELVYGTPVTAN | failed
15 | MKRYPRDMRGHGPTPPDAAWPGGARIAVSIVLNYEEGGENCLLHGDAQSEAFLSDIAGAQPWPGQRHWNMESIYDYGARAGFWRLHRLFTGLNIPVTVYGVATALARSPEQVAAMKSAGWEIASHGLKWVEHRDMPEEEERRQIAEAIRLHAEVVGERPRGWYTGRCSVNTVRLTAEEGGFDWISDTYDDDQPYWLETGTRDQLVIPYTLEANDMRFATAPGYIEGEQFFTYLRDSFDTLYAEGCAGQAKMFSIGLHCRLIGRPGKIAGLKRFLDYARTHERVWFPCRGDIARHWHETHPHRRRPRPSRMDRESFVAHFGGIYEHSPWIAERAFELELGPAHDSPAGLANALARIFRSATPAERLSVLKAHPDLAGKLAQARRLTASSSFEQSSAGLDALTDAERAEFATLNADYVAKHGFPFIIAVRDHDKAGILAAFETRLAHDSATEFATACRQVERIAELRLQDMLKLEHHHHHH | failed
16 | MKSAPAVISVAFVLGLLTWLLLHGLNINSARYDSQLRALGDFTRFERGMTREVLTARAGLSRNYDALVHMVNAYDDALTRLRDTAGLDAEQTRVIDVLSARADRQESLIERFKSRNALLQNSFAYFGLFSDRLAASESRPVVTAASALAAAMLRLTLDTSDAAARQVEDRLEELAQLQAPPAETDSVHALLLHGQMLHDLLPDIDTILKTLVAESNNREQDAMLAVILKRQLAARASARKTRLLQYITSLLLLSGIIYFGMLLRKRAMALRRRAAFEHVIANISMLFINSSNDGIDADVEMALRQLAGCIGADRAYFACVVGTTMHTYRWSRDGIAFEPGWPERVLSLAPRLDGGEDGIVYIPRMNASHPHDAMLTEAGVSGWLCIMAAYGSRDGILGFDAVRGGALTYWSEVSLFRMAFDAIGNAIRRARLEGEKERLQASLQQARRMETIGTFASGIAHNFNNIVGAILGHAEMADARVAPGSRPAASLAEIRRAGERARELVEQILGFGRRGEGRRERVCLRTLVDETRSLLAASLPSHVTFEVDETADIAIVTGEPAQLQQVILNLCNNAAQAMKEPGRIELRIKVHDLVKPLSIGRSEVGPGRFTVISVADPGPGMDEATLERIFEPFFTTRPDGNGLGLATVREIVEQHGGAVAVQSRPDAGTRFDIWLPSGEPVEPQPAQHGSDPAFLGAGETVLVIDTDRRRLLRYEEILAALGYEPVGFTGLAEAIAACRAAHARFDAALVCHLPGGSSLDLAAALHDAAPALPIILAAPSTRDLAMPSLKTSGITELVHHPLASAELASALARSLVSSATSGRLRRAAGAS | failed
17 | MKSGIGVGLKKEHLKIQINNSGVLTITGGCPVDQTKTIRFMKETKVAKDCKRNEIRAKFSKGVLYVTMPKTIPIAAGLSVSLKGATPQHQTPKTDEGMRNVANCSSEFYSKFGSLKQRLWRKTVVEGVAAVVVVAAAVLGVVKAYQYFMASPV | failed
18 | MKSHKMMGGGISMHYITACLKIISDKDLNEIMKEFKKLEEETNKEEGCITFHAYPLEPSERKIMLWEIWENEEAVKIHFTKKHTIDVQKQELTEVEWLMKSNVND | not failed
19 | MKSIRRGDGLNVVPFIDIMLVLLAIVLSISTFIAQGKIKVSLPNAKNAEKSQPNDQKVVVISVDEHDNIFVDDKPMNLEALSAVVKQTDPKTLIDLKSDKSSRFETFISIMDILKEHNHENFSISTQAQ | failed
